Assay results as given in publication PMC6025699, “Acetylation Regulates Thioredoxin Reductase Oligomerization and Activity” (Antioxidants & Redox Signaling, 2018).
Where “and” joins values, the source holds several entries; their conditions need not be identical. Equal entries are not always repeated.

Legend:
[1] = biological target: the molecule itself; assay: cell-based or functional assay
[2] = biological target: the molecule itself; assay: SEC; native size exclusion chromatography, Superdex 200 Increase 10/300 GL, 20 mM sodium phosphate, 150 mM sodium chloride, pH 7.5; 0.5 mL fractions read by anti-His Western blot (densitometry) and DTNB activity; self-association: monomers, dimers, tetramers

B1: acetylated thioredoxin reductase 1, Nɛ-acetyl-lysine at K141 (acTrxR1^K141) (enzyme, human, UniProt Q16881-4 1-551, looked up)
chain: MSCEDGRALEGTLSELAAETDLPVVFVKQRKIGGHGPTLKAYQEGRLQKLLKMNGPEDLPKSYDYDLIIIGGGSGGLAAAKEAAQYGKKVMVLDFVTPTPLGTRWGLGGTCVNVGCIPKKLMHQAALLGQALQDSRNYGWKVEETVKHDWDRMIEAVQNHIGSLNWGYRVALREKKVVYENAYGQFIGPHRIKATNNKGKEKIYSAERFLIATGERPRYLGIPGDKEYCISSDDLFSLPYCPGKTLVVGASYVALECAGFLAGIGLDVTVMVRSILLRGFDQDMANKIGEHMEEHGIKFIRQFVPIKVEQIEAGTPGRLRVVAQSTNSEEIIEGEYNTVMLAIGRDACTRKIGLETVGVKINEKTGKIPVTDEEQTNVPYIYAIGDILEDKVELTPVAIQAGRLLAQRLYAGSTVKCDYENVPTTVFTPLEYGACGLSEEKAVEKFGEENIEVYHSYFWPLEWTIPSRDNNKCYAKIICNTKDNERVVGFHVLGPNAGEVTQGFAAALKCGLTKKQLDSTIGIHPVCAEVFTTLSVTKRSGASILQAGCUG
modifications: Nɛ-acetyl-lysine at 141; selenocysteine (Sec) at 550
notes: Same construct as m1 but for the acetyl-lysine at 141; source: E. coli BL21 DE3 or E. coli ΔRF1 (C321.ΔA.exp) with acKRS/tRNA^Pyl, purified (Ni-NTA, size-exclusion chromatography)
9,10-phenanthrequinone assay, relative activity (x-fold, WT TrxR1 = 1), 100 nM TrxR1 [1]: 1.2 x-fold
DTNB assay, relative activity (x-fold, WT TrxR1 = 1), 50 nM TrxR1 [1]: 1.8 x-fold
insulin linked Trx1 assay, relative activity (x-fold, WT TrxR1 = 1), 200 nM TrxR1 [1]: 1.8 x-fold
stoichiometry N [2]: 2 and 4

B2: acetylated thioredoxin reductase 1, Nɛ-acetyl-lysine at K307 (acTrxR1^K307) (enzyme, human, UniProt Q16881-4 1-551, looked up)
chain: MSCEDGRALEGTLSELAAETDLPVVFVKQRKIGGHGPTLKAYQEGRLQKLLKMNGPEDLPKSYDYDLIIIGGGSGGLAAAKEAAQYGKKVMVLDFVTPTPLGTRWGLGGTCVNVGCIPKKLMHQAALLGQALQDSRNYGWKVEETVKHDWDRMIEAVQNHIGSLNWGYRVALREKKVVYENAYGQFIGPHRIKATNNKGKEKIYSAERFLIATGERPRYLGIPGDKEYCISSDDLFSLPYCPGKTLVVGASYVALECAGFLAGIGLDVTVMVRSILLRGFDQDMANKIGEHMEEHGIKFIRQFVPIKVEQIEAGTPGRLRVVAQSTNSEEIIEGEYNTVMLAIGRDACTRKIGLETVGVKINEKTGKIPVTDEEQTNVPYIYAIGDILEDKVELTPVAIQAGRLLAQRLYAGSTVKCDYENVPTTVFTPLEYGACGLSEEKAVEKFGEENIEVYHSYFWPLEWTIPSRDNNKCYAKIICNTKDNERVVGFHVLGPNAGEVTQGFAAALKCGLTKKQLDSTIGIHPVCAEVFTTLSVTKRSGASILQAGCUG
modifications: Nɛ-acetyl-lysine at 307; selenocysteine (Sec) at 550
notes: Same construct as m1 but for the acetyl-lysine at 307; source: E. coli BL21 DE3 or E. coli ΔRF1 (C321.ΔA.exp) with acKRS/tRNA^Pyl, purified (Ni-NTA, size-exclusion chromatography)
9,10-phenanthrequinone assay, relative activity (x-fold, WT TrxR1 = 1), 100 nM TrxR1 [1]: 1.3 x-fold
DTNB assay, relative activity (x-fold, WT TrxR1 = 1), 50 nM TrxR1 [1]: 2.7 x-fold
insulin linked Trx1 assay, relative activity (x-fold, WT TrxR1 = 1), 200 nM TrxR1 [1]: 2 x-fold
stoichiometry N [2]: 2 and 4

B3: acetylated thioredoxin reductase 1, Nɛ-acetyl-lysine at K200 (acTrxR1^K200) (enzyme, human, UniProt Q16881-4 1-551, looked up)
chain: MSCEDGRALEGTLSELAAETDLPVVFVKQRKIGGHGPTLKAYQEGRLQKLLKMNGPEDLPKSYDYDLIIIGGGSGGLAAAKEAAQYGKKVMVLDFVTPTPLGTRWGLGGTCVNVGCIPKKLMHQAALLGQALQDSRNYGWKVEETVKHDWDRMIEAVQNHIGSLNWGYRVALREKKVVYENAYGQFIGPHRIKATNNKGKEKIYSAERFLIATGERPRYLGIPGDKEYCISSDDLFSLPYCPGKTLVVGASYVALECAGFLAGIGLDVTVMVRSILLRGFDQDMANKIGEHMEEHGIKFIRQFVPIKVEQIEAGTPGRLRVVAQSTNSEEIIEGEYNTVMLAIGRDACTRKIGLETVGVKINEKTGKIPVTDEEQTNVPYIYAIGDILEDKVELTPVAIQAGRLLAQRLYAGSTVKCDYENVPTTVFTPLEYGACGLSEEKAVEKFGEENIEVYHSYFWPLEWTIPSRDNNKCYAKIICNTKDNERVVGFHVLGPNAGEVTQGFAAALKCGLTKKQLDSTIGIHPVCAEVFTTLSVTKRSGASILQAGCUG
modifications: Nɛ-acetyl-lysine at 200; selenocysteine (Sec) at 550
notes: Same construct as m1 but for the acetyl-lysine at 200; source: E. coli BL21 DE3 or E. coli ΔRF1 (C321.ΔA.exp) with acKRS/tRNA^Pyl, purified (Ni-NTA, size-exclusion chromatography)
9,10-phenanthrequinone assay, relative activity (x-fold, WT TrxR1 = 1), 100 nM TrxR1 [1]: 1.4 x-fold
DTNB assay, relative activity (x-fold, WT TrxR1 = 1), 50 nM TrxR1 [1]: 2.1 x-fold
insulin linked Trx1 assay, relative activity (x-fold, WT TrxR1 = 1), 200 nM TrxR1 [1]: 1.9 x-fold
stoichiometry N [2]: 2 and 4

B4: wild-type thioredoxin reductase 1 (human TrxR1, isoform 4, Sec550) (enzyme, UniProt Q16881-4 1-551, looked up)
chain: MSCEDGRALEGTLSELAAETDLPVVFVKQRKIGGHGPTLKAYQEGRLQKLLKMNGPEDLPKSYDYDLIIIGGGSGGLAAAKEAAQYGKKVMVLDFVTPTPLGTRWGLGGTCVNVGCIPKKLMHQAALLGQALQDSRNYGWKVEETVKHDWDRMIEAVQNHIGSLNWGYRVALREKKVVYENAYGQFIGPHRIKATNNKGKEKIYSAERFLIATGERPRYLGIPGDKEYCISSDDLFSLPYCPGKTLVVGASYVALECAGFLAGIGLDVTVMVRSILLRGFDQDMANKIGEHMEEHGIKFIRQFVPIKVEQIEAGTPGRLRVVAQSTNSEEIIEGEYNTVMLAIGRDACTRKIGLETVGVKINEKTGKIPVTDEEQTNVPYIYAIGDILEDKVELTPVAIQAGRLLAQRLYAGSTVKCDYENVPTTVFTPLEYGACGLSEEKAVEKFGEENIEVYHSYFWPLEWTIPSRDNNKCYAKIICNTKDNERVVGFHVLGPNAGEVTQGFAAALKCGLTKKQLDSTIGIHPVCAEVFTTLSVTKRSGASILQAGCUG
modifications: selenocysteine (Sec) at 550
notes: amplified with a forward primer at the ATG (NdeI) and a reverse primer behind the fdhF SecIS in the 3' UTR; In solution a mixture of monomers, dimers, tetramers and covalently linked dimers; also called WT TrxR1; His6-TrxR1; source: E. coli BL21 DE3 or E. coli ΔRF1 (C321.ΔA.exp), purified (Ni-NTA, size-exclusion chromatography)
stoichiometry N [2]: 2 and 4
